Data: article PMC8563995, “CCA-addition in the cold: Structural characterization of the psychrophilic CCA-adding enzyme from the permafrost bacterium Planococcus halocryophilus” (Computational and Structural Biotechnology Journal, 2021)

System: GstCCA (CCA-adding enzyme, tRNA nucleotidyltransferase) (Geobacillus stearothermophilus)
Assay: EMSA
Conditions: 10 mM MgCl2; 37 °C; EMSA: 50 mM glycine/NaOH pH 8.5, 10 mM MgCl2, 2 mM DTT, 0.3 pmol tRNA, 0-5 µM enzyme, 10 min at 37 °C (GstCCA) or 4 °C and 30 °C (PhaCCA); 5% native PAGE at …

yeast tRNAPhe lacking the CCA terminus showed a Kd of 1300 nM.
